Measured values taken from US8722043B2, “Induction of p53 expression by neutralization of neuropilin-2 for the treatment of cancers” (Diaclone, priority 2008, dated 2014).

Assays:
[1] = biological target: T1, human neuropilin-2 at the membrane surface (HT29-NRP-2, P815-NRP-2 cells) (Homo sapiens, UniProt O60462); assay: Flow cytometry membrane labelling of cells expressing or not expressing NRP-2; format: binding; settings: 5 μg/ml antibody, 15 minutes at 4° C.; HT29, HT29-NRP-2, P815, P815-NRP-2 cells
T1 construct: expressed in transfected cells; host or cells: HT29 (human colorectal cancer) and P815 (murine mastocytoma) cells, G418-selected
T1 sequence (O60462 21-931): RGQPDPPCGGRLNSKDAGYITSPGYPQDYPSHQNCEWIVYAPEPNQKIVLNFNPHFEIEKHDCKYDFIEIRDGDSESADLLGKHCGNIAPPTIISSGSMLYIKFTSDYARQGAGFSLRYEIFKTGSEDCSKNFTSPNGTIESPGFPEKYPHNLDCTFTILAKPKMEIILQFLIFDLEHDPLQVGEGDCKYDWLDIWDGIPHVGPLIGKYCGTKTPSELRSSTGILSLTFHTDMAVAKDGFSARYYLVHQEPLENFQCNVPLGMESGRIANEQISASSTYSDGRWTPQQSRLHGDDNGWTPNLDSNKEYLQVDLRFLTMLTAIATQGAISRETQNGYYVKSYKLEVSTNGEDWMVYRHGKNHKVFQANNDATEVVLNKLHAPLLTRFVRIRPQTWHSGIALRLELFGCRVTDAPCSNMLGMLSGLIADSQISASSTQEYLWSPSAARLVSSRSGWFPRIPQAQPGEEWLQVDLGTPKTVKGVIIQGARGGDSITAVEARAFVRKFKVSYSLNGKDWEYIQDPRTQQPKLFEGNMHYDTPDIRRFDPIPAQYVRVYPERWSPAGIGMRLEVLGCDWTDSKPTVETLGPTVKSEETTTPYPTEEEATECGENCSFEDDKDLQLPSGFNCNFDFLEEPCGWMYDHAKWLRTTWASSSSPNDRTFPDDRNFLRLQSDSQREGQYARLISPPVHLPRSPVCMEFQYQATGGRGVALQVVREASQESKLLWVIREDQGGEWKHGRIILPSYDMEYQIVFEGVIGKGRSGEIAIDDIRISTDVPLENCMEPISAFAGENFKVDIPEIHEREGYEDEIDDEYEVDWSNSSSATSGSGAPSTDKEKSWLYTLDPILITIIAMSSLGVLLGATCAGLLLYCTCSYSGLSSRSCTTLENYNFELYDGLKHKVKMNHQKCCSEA
Method: The ITAC-B1 clone was deposited, according to the Treaty of Budapest, with the CNCM (Collection Nationale des Microorganismes [French National Microorganism Collection], Institut Pasteur, 25 rue du Docteur Roux, 75724 Paris Cedex 15, France) on 30 Jul. 2008 under the deposit number CNCM 1-4054. In order to characterize the ITAC-B1 and ITAC-B2 monoclonal antibodies, membrane labelling was carried out by flow cytometry by bringing 200 000 HT29, HT29-NRP-2, P815 or P815-NRP-2 cells into contact with 5 μg/ml of ITAC-B1 or of ITAC-B2, for 15 minutes at 4° C. A goat anti-mouse secondary antibody coupled to FITC was then incubated for 15 minutes in the dark, at 4° C., before reading by flow cytometry. The results of the flow cytometry analysis obtained for ITAC-B1 are represented in FIG. 2.
For each of the panels of FIG. 2, the number of events (number of cells) is indicated on a y-axis, the fluorescence intensity (corresponding to the labelling of the cells with the ITAC-B1 antibody) is represented on the x-axis. Panels A and C (P815+ITAC-B1 and HT29ctrl+ITAC-B1) of FIG. 2 represent the results obtained by flow cytometry with the control cells, while panels B and D (P815-NRP-2+ITAC-B1 and HT29-NRP-2+ITAC-B1) represent the results obtained with cells expressing NRP-2 at their membrane surface. […]

[2] = system: Colo320^siRNA-NRP-2 cells (not expressing NRP-2); assay: MTT assay for tumour cell proliferation; format: cell-based, human; settings: 5 μg/ml antibody; 24, 48 or 72 hours
Source text: (§1) The MTT proliferation assay is based on the reduction of 3-(4,5-dimethylthiazol-2-yl)-2,5-diphenyltetrazolium bromide), by the mitochondrial succinate dehydrogenase of active live cells, to give formazan. The coloration intensity (OD) induced by this reaction is proportional to the number of live cells present during the assay, and to the metabolic activity thereof.
(§2) 4000 cells per well of Colo320^siRNA-ctrl cells (control cells transfected with an empty vector) or of Colo320^siRNA-NRP-2 cells (transfected with an siRNA targeting NRP-2), in 100 μl of DMEM medium containing 10% of inactivated FCS, were seeded into a 96-well Maxisorp plate. After adhesion of the cells, 5 μg/ml of ITAC-B anti-NRP-2 antibody or 5 μg/ml of control antibody were added. After culture for 24, 48 or 72 hours, 10 p. 1 of MTT reconstituted at 5 mg/ml in PBS were added to each culture well. The plates were then incubated for 3 hours in the dark, at 37° C. and 5% CO2, and centrifuged, and then the supernatant was removed. 200 p. 1 of DMSO were then added to each well. The optical density was read within an hour, at 570 nm, after shaking with the plate. The assay was carried out in triplicate.
(§3) Panels A and B of FIG. 11 represent, respectively, the results obtained in the proliferation assay carried out with the Colo320^siRNA-ctrl or Colo320^siRNA-NRP-2 cells. […]

[3] = system: Colo320^siRNA-ctrl cells (express NRP-2); assay: MTT assay for tumour cell proliferation; format: cell-based, human; settings: 5 μg/ml antibody; 24, 48 or 72 hours
Source text: as §1, §2, §3

HT29-NRP-2 cells = assay: Annexin V-APC apoptosis test; format: cell-based, human
Method: In order to determine the ability of the ITAC-B1 antibody to induce apoptosis of tumour cells expressing NRP-2, an in vitro Annexin V-APC apoptosis test was carried out (BD Pharmingen, San Diego, Calif.). This test is based on the externalization of phosphatidylserin by apoptotic cells and on the binding of Annexin V-APC to this molecule.
1 ml of DMEM medium containing 10% of inactivated FCS and 100 000 HT29-NRP-2 cells or 100 000 HT29ctrl cells were seeded, per well, into a 24-well Nunc plate. […] In parallel, “cells alone” controls were carried out, as were negative controls (anti-human mouse IgG1 antibody (BZ1) at the same concentrations as the ITAC-B1 antibody).
[…] When the cells began to detach, 500 μl of DMEM medium-10% FCS were added per well. The cells were then centrifuged, washed twice in PBS, and then taken up in 300 μl of 1× binding buffer (provided in the kit), and then 5 μl of Annexin V-APC were subsequently added to 100 μl of this solution.
The panels of FIG. 13 are point-cloud representations of the flow cytometry analysis. For each of the panels, the fluorescence intensity (corresponding to the labelling of the cells with Annexin V-APC) is represented on the x-axis. The y-axis indicates the granulosity of the cells (Side Scatter or SSC). […] The percentage of cells labelled with Annexin V-APC (corresponding to the percentage of cells having entered into apoptosis) is indicated at the bottom-right of each panel.
The apoptosis induced was then measured by labelling with Annexin V-APC as described above.
The panels of FIG. 15 are point-cloud representations of the flow cytometry analysis. For each of the panels, the fluorescence intensity (corresponding to the labelling of the cells with Annexin V-APC) is represented on the x-axis. The y-axis indicates the granulosity (side scatter) of the cells. The conditions of treatment with the antibodies and the Avastin® are indicated to the left of the panels. The percentage of cells labelled with the Annexin V-APC, corresponding to the percentage of cells having entered into apoptosis, is indicated at the top-right of each panel.

B1: ITAC-B1: anti-human neuropilin-2 murine monoclonal antibody, VH SEQ ID No. 2, VL SEQ ID No. 4, produced by hybridoma CNCM 1-4054 (antibody, listed as Mus musculus, V domains shown)
VH: EVKLQESGAELVKPGASVKLSCTVSGFNIKDTYIHWVIQRPEQGLEWLGRIDPANGNTKYDPKFQGKATITADTSSNTAYLQLSSLTSEDTAVYYCARWAVVGDYWGQGTTLTVSS
VL: YCDHPLYKFLHVSAGDRVTITCKASQSVSDDVAWYQQKPGQSPKLLIYSASNRYTGVPDRFTGSGYGTDFTFTISTVQPEDLAVYFCQQDYSSPTFGSGTKLELK
For B1, which “labelling of cells expressing NRP-2 versus cells not expressing NRP-2” value [1] is on record?
Its value is “specifically recognize the neuropilin-2 present at the membrane surface”.

And the “proliferation (OD at 570 nm)” value [2]?
The value was “identical to that of the control cells and to that observed in the presence of the control antibody”.

What about the “proliferation (OD at 570 nm)” value [3] of the same molecule?
Its value is “less than that of the cells alone and that observed in the presence of the control antibody”.

And the “apoptosis induced (Annexin V-APC labelling) as a function of concentration” value (HT29-NRP-2 cells; 0.5, 1 and 5 μg/ml, 16 hours)?
The value was “dose-dependent”.

And the “dose at which apoptosis of cells expressing NRP-2 is induced” value (HT29-NRP-2 cells; 16 hours incubation, 0.5, 1 and 5 μg/ml tested)?
Its value is “greater than or equal to 1 μg/ml”.

What about the “combined action with anticancer molecules (5-FU, irinotecan) on apoptosis” value (HT29-NRP-2 cells; FIG. 13) of the same molecule?
The value was “synergy of action”.

And the “percentage of cells labelled with Annexin V-APC (apoptosis)” value (shortened to “percentage of cells labelled”) (HT29-NRP-2 cells; ITAC-B1 2.5 μg/ml jointly with 5-FU 10 μg/ml (FIG. 13))?
The value was about 78.5%.

What about the “percentage of cells labelled” value (HT29-NRP-2 cells; ITAC-B1 2.5 μg/ml with irinotecan 10 μg/ml (FIG. 13)) of the same molecule?
Its value is about 51%.

What about the “percentage of cells labelled” value (HT29-NRP-2 cells; ITAC-B1 5 μg/ml jointly with 5-FU 10 μg/ml (FIG. 13)) of the same molecule?
Its value is about 80%.

And the “percentage of cells labelled” value (HT29-NRP-2 cells; ITAC-B1 5 μg/ml with irinotecan 10 μg/ml (FIG. 13))?
The value was about 58%.

And the “percentage of cells labelled” value (HT29-NRP-2 cells; antibody 20 μg/ml, 6 hours, cells cultured with Avastin (bevacizumab) 50 μg/ml (FIG. 15))?
Its value is “approximately 58%”.

And the “percentage of cells labelled” value (HT29-NRP-2 cells; antibody 20 μg/ml, 6 hours, without Avastin (FIG. 15))?
The value was about 51%.

And the “ability to induce apoptosis of tumour cells expressing neuropilin-2 (selection of clones)” value (HT29-NRP-2 cells; selection criterion of the hybridoma clones)?
The value was “ability to induce apoptosis of tumour cells expressing neuropilin-2”.
